# Laboratory results reported in PMC5778112.
# Assays:
# [1] = target: VLA-4 (α4β1, CD49d/CD29) (human (endogenous in Jurkat and primary human CD4+ T cells)) (UniProt P13612)
# [2] = target: VLA-4 (α4β1, CD49d/CD29) (human (endogenous in Jurkat and primary human CD4+ T cells)) (UniProt P13612); remark: listed apart in the source
# Sequence of UniProt P13612 (P13612 34-1032, chain 1 of 2): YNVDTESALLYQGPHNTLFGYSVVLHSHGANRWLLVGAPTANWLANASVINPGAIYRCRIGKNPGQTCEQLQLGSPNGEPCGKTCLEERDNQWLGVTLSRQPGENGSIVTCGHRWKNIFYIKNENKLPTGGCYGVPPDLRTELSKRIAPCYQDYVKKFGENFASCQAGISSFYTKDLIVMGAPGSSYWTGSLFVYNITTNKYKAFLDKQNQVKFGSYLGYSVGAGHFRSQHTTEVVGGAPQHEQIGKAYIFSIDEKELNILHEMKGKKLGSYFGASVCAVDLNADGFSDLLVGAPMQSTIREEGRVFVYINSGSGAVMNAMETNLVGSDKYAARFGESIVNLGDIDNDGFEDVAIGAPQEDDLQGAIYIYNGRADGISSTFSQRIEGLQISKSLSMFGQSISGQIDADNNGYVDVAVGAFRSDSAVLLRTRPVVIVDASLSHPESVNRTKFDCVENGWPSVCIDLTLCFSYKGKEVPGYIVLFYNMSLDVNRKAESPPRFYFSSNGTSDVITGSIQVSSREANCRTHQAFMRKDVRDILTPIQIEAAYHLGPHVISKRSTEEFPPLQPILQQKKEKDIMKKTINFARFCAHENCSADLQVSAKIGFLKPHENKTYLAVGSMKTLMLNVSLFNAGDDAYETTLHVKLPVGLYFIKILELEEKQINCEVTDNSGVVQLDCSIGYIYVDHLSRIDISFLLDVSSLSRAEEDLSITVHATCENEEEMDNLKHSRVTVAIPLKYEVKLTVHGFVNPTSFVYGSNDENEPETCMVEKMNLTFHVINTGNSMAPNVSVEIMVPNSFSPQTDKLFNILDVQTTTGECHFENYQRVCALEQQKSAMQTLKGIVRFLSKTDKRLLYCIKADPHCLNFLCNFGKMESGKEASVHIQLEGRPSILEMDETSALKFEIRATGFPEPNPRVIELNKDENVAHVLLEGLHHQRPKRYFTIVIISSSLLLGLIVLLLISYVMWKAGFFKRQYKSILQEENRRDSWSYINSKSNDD
# Sequence of UniProt P13612 (P05556 21-798, chain 2 of 2, further chain): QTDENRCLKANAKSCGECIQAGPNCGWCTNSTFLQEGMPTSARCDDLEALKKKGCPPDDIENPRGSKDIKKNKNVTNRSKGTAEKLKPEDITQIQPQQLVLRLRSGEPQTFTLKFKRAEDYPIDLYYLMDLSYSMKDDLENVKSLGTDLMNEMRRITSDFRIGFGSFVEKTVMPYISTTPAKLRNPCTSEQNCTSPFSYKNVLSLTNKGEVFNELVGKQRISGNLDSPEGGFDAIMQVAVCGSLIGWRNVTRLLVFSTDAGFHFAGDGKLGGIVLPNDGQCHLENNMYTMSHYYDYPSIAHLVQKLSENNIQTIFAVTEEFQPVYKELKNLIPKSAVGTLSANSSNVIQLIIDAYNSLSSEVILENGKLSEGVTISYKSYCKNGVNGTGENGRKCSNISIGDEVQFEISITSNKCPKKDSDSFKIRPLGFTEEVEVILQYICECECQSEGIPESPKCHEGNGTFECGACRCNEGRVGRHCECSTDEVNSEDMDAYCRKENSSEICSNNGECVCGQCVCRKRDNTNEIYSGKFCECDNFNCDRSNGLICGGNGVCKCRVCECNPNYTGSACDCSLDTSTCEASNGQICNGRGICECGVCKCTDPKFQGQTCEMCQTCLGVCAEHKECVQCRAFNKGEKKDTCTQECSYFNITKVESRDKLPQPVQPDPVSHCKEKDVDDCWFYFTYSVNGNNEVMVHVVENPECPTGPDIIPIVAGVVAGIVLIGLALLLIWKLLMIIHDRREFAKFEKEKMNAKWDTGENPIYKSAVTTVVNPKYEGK
binder,measurement,setting,value
"human VCAM-1-Fc chimera (Fc fusion, labeled with AF-647 for patterning) FKIETTPESRYLAQIGDSVSLTCSTTGCESPFFSWRTQIDSPLNGKVTNEGTTSTLTMNPVSFGNEHSYLCTATCESRKLEKGIQVEIYSFPKDPEIHLSGPLEAGKPITVKCSVADVYPFDRLEIDLLKGDHLMKSQEFLEDADRKSLETKSLEVTFTPVIEDIGKVLVCRAKLHIDEMDSVPTVRQAVKELQVYISPKNTVISVNPSTKLQEGGSVTMTCSSEGLPAPEIFWSKKLDNGNLQHLSGNATLTLIAMRMEDSGIYVCEGVNLIGKNRKEVELIVQEKPFTVEISPGPRIAAQIGDSVMLTCSVMGCESPSFSWRTQIDSPLSGKVRSEGTNSTLTLSPVSFENEHSYLCTVTCGHKKLEKGIQVELYSFPRDPEIEMSGGLVNGSSVTVSCKVPSVYPLDRLEIELLKGETILENIEFLEDTDMKSLENKSLEMTFIPTIEDTGKALVCQAKLHIDDMEFEPKQRQSTQTLYVNVAPRDTTVLVSPSSILEEGSSVNMTCLSQGFPAPKILWSRQLPNGELQPLSENATLTLISTKMEDSGVYLCEGINQAGRSRKEVELIIQVTPKDIKLTAFPSESVKEGDTVIISCTCGNVPETWIILKKKAETGDTVLKSIDGAYTIRKAQLKDAGVYECESKNKVGSQLRSLTLDVQGRENNKDYFSPE",actin flow rate in the lamellipodial region of Jurkat T cells (GFP-actin) spreading on coverslips coated with anti-CD3 + VCAM-1 (85–95 nm/s on anti-CD3 alone),[1],15 nm/s
His-tagged human VCAM-1 Fc (Fc fusion) FKIETTPESRYLAQIGDSVSLTCSTTGCESPFFSWRTQIDSPLNGKVTNEGTTSTLTMNPVSFGNEHSYLCTATCESRKLEKGIQVEIYSFPKDPEIHLSGPLEAGKPITVKCSVADVYPFDRLEIDLLKGDHLMKSQEFLEDADRKSLETKSLEVTFTPVIEDIGKVLVCRAKLHIDEMDSVPTVRQAVKELQVYISPKNTVISVNPSTKLQEGGSVTMTCSSEGLPAPEIFWSKKLDNGNLQHLSGNATLTLIAMRMEDSGIYVCEGVNLIGKNRKEVELIVQEKPFTVEISPGPRIAAQIGDSVMLTCSVMGCESPSFSWRTQIDSPLSGKVRSEGTNSTLTLSPVSFENEHSYLCTVTCGHKKLEKGIQVELYSFPRDPEIEMSGGLVNGSSVTVSCKVPSVYPLDRLEIELLKGETILENIEFLEDTDMKSLENKSLEMTFIPTIEDTGKALVCQAKLHIDDMEFEPKQRQSTQTLYVNVAPRDTTVLVSPSSILEEGSSVNMTCLSQGFPAPKILWSRQLPNGELQPLSENATLTLISTKMEDSGVYLCEGINQAGRSRKEVELIIQVTPKDIKLTAFPSESVKEGDTVIISCTCGNVPETWIILKKKAETGDTVLKSIDGAYTIRKAQLKDAGVYECESKNKVGSQLRSLTLDVQGRENNKDYFSPE,actin flow rate in the lamellipodial region of Jurkat T cells on supported lipid bilayers with mobile anti-CD3 + VCAM-1,[2],60 nm/s
